From publication doi:10.1101/693663 (bioRxiv, 2019) come the findings set out here.

Data set [1] concerns the target ASK2(1216–1288), C-terminal SAM domain of ASK2 (human) (UniProt O95382). Kind of data set: AUC.
Data set [2] concerns the target ASK1(1290–1374), C-terminal SAM domain of ASK1 (human) (UniProt Q99683). Kind of data set: SAXS.
Data set [3] deals with the molecule itself. The experiment in a line: SAXS.
For data set [4], the target named is T1, GST-ASK2 SAM domain (human, UniProt O95382 1216-1288).
T1 sequence (looked up): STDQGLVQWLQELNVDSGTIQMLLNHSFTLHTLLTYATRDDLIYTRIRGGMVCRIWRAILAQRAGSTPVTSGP
Kind of data set: pull-down.

Data set [5] deals with the molecule itself. The experiment in a line: SEC. On the technique in general: Size exclusion chromatography separates by hydrodynamic size, large species first.

For “ASK2(1216–1288), C-terminal SAM domain of ASK2 (from UniProt O95382 1216-1288) (domain or fragment)”, the stoichiometry N (in general, the number of molecules, sites or subunits per partner or assembly) in data set [1] came to 2.

On to “ASK1(1290–1374), C-terminal SAM domain of ASK1 (from UniProt Q99683 1290-1374) (domain or fragment)”, for which the stoichiometry N in data set [2] was found to be 2.

B1: ASK3(1241–1313), C-terminal SAM domain of ASK3 (domain or fragment, human, UniProt Q6ZN16 1241-1313, looked up)
chain: DKELIDWLRLQGADAKTIEKIVEEGYTLSDILNEITKEDLRYLRLRGGLLCRLWSAVSQYRRAQEASETKDKA
Take B1: the “stoichiometry N” value in data set [3] is 6. Besides, in data set [4], the binding result is recorded as “binds”.

B2: ASK3 SAM domain K1242E (domain or fragment, human, UniProt Q6ZN16 1241-1313, looked up)
chain: DEELIDWLRLQGADAKTIEKIVEEGYTLSDILNEITKEDLRYLRLRGGLLCRLWSAVSQYRRAQEASETKDKA
Consider B2, for which the binding result in data set [5] is given as “binds”.

B3: ASK3 SAM domain Q1304A (domain or fragment, human, UniProt Q6ZN16 1241-1313, looked up)
chain: DKELIDWLRLQGADAKTIEKIVEEGYTLSDILNEITKEDLRYLRLRGGLLCRLWSAVSQYRRAAEASETKDKA
B3: in data set [5], the binding result was “binds”.

B4: ASK3 SAM domain V1262N (domain or fragment, human, UniProt Q6ZN16 1241-1313, looked up)
chain: DKELIDWLRLQGADAKTIEKINEEGYTLSDILNEITKEDLRYLRLRGGLLCRLWSAVSQYRRAQEASETKDKA
On to B4, for which the binding result in data set [5] is recorded as “binds”.
